Assay results published in PMC12705809.

Target: Chaetomium thermophilum Pmt4 (protein O-mannosyltransferase 4), wild-type full-length (Chaetomium thermophilum)
Assay: native MS; ctPmt4 purified in DDM, exchanged into 200 mM ammonium acetate pH 8.0 with 2x CMC detergent; Q Exactive UHMR, negative polarity; monomer and dimer peaks seen

Substance: Chaetomium thermophilum Pmt4 (protein O-mannosyltransferase 4), wild-type full-length (enzyme)
- stoichiometry N: 2
